Test results as given in the supplement of paper PMC10266784.

B1: library; numbered along this chain (parent)
chain: MAAAAAAAAEQQSSNGPVKKSMREKAVERRSVNKEHNSNFKAGYIPIDEDRLHKTGLRGRKGNLAICVIILLFILAVINLIITLVIWAVIRIGPNGCDSMEFHESGLLRFKQVSDMGVIHPLYKSTVGGRRNENLVITGNNQPIVFQQGTTKLSVENNKTSITSDIGMQFFDPRTQNILFSTDYETHEFHLPSGVKSLNVQKASTERITSNATSDLNIKVDGRAIVRGNEGVFIMGKTIEFHMGGNMELKAENSIILNGSVMVSTTRLPSSSSGDQLGSGDWVRYKLCMCADGTLFKVQVTSQNMGCQISDNPCGNTH

Variants of: B1
Assay: SGCB cell-surface expression functional score (HA stain, bin4 vs bin1, normalised to synonymous) (log10 ratio); higher = more cell-surface SGCB (functional)
Method in brief: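 HEK293 cells stably expressing alpha-, gamma- and delta-sarcoglycan received codon-saturation libraries of HA-tagged, YFP-fused human beta-sarcoglycan by lentiviral transduction at MOI <0.1, performed in duplicate. Cells positive for YFP were sorted after 72 hours and cultured for 5–7 days, then stained on ice with Alexa Fluor 647 anti-HA and fixed. Fixed cells were sorted into four 5% intensity bins and amplicon-sequenced, and the log ratio of highest-bin to lowest-bin variant frequency, as a median over codons and transductions, gives the functional score. Per section, synonymous variants were scaled to mean 0, SD 0.5.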

SGCB cell-surface expression functional score (log10), by site and new letter:
D172: P -1.12; N -0.02; V 0.26; S 0.68; K -0.36; W -0.88; M 0.46; A 0.03; G 0.2; F -0.3; T 0.25; H 0.44; Y -0.12; I -1.04; C 0.95; L 0.77; R -0.58; E 0.42; Q -0.19
Q176: S -0.24; C 1.06; E 0.27; Y -0.78; G 0.46; I -0.61; L -0.17; T -0.34; A 0.1; V -0.31; H -0.38; F -0.66; R 0.16; P -0.31; W -0.21; N 0.38; D 0.07; K -0.32; M -0.21
N177: Y 0.11; G 0.05; W -0.44; L 0.29; P -1.5; I 0.12; K -0.45; S 0.02; F -0.18; C 0.09; A 0.49; V 0.4; R 0.42; T 0.39; M -0.24; Q 1.3; E 0.19; D 0.12; H 0.09
M168: S -1.21; V -0.11; W -2.06; I -0.24; R -0.79; G -1.9; K -0.76; D -1.62; Y -1.79; L 0.01; C -0.84; H -1.85; F -0.59; A -1.55; E -0.66; Q -1.74; T -1.24; N -2.1; P -0.24
Q169: C -1.24; P -1.46; T -0.04; W -1.48; M -1.88; A -1.13; R 0.09; H -0.86; D -0.37; Y -0.36; I 0.44; K 0; L -0.69; S 0.27; F -1.89; E 0.46; V -0.23; G -1.16; N -1.92
F171: T 0.72; N -0.08; L 0.15; I 0.86; S -0.28; V -0.07; E -1.22; C -1.66; M 1.04; A -0.81; K 0.12; P -0.43; R 0.04; Q 0.8; Y 0.03
T182: E -1.6; S -1.55; V -1.47; K -0.75; N -1.25; P -1.25; A -1.25; M -1.87; Y -2.23; C -2.09; Q -1.49; W -1.65; G -1.06; D -2.4; I -1; F -2.63; L -1.43; R -1.25; H -1.44
I166: R -0.29; V 0.13; W -2.63; Y 0.18; Q -0.21; T 0.36; S -0.76
S181: A 0.2; V -1.52; Q -1.57; H -1.65; N -1; G -0.94; Y -1.76; W -1.97; M 0.13; C -0.89; E -1.4; K -1.64; F -1.53; L -1.37; P -1.69; T -0.51; D -0.41; I -1.25; R -0.87
L179: M -1.01; V -0.27; T -1.12; R 0.67; S -1.32; K 0.28; E -1.07; D -1.87; Q -0.03; Y -0.54; N -1.22; W 1.37; I -0.73; H -1.99; G -0.53; A 0.06; P -0.55; F 0.08
I178: F -0.92; H -0.39; R -0.26; V 0.68; Y -1.19; L 0.3; E -2.31; M -0.88; D -0.82; G -0.44; P 0.29; A -1.66; Q -0.75; C -0.6; K -0.57; S -1.13; W -1.15; N -0.4; T -0.41
T175: W 1.12; N -0.16; A 0.26; Y 0.07; I -0.13; E -0.42; F 0.17; C -0.43; G 0.14; M -0.5; R 0.24; D -0.47; K -0.54; Q 1.26; V -0.16; P -1.3; H 0.32; L 0.08; S -0.04
P173: F -0.34; G -0.17; S 0.5; H 0.19; T -0.17; C -0.22; E 0; D -0.84; M 0; L -0.21; R -0.47; N -0.77; V 0.67; Q 0.62; A -0.38; Y -0.68; W -1.02; K -0.93; I -0.68
D183: A 1.15; E 0.35; N -0.15; F -1.63; P -1.43; G -1.31; I -1.89; M -0.83; C -1.17; S -0.22; T -0.79; H -0.33; Q -0.56; Y -0.53; K -0.36; R -0.21; L -0.71; V -0.86; W 0.54
R174: L 0.05; K 0.08; A 0.02; D -0.81; H -0.58; E -0.22; I -0.15; W -0.75; M 0.09; Y -0.17; N -1.48; S -0.45; Q -1.07; P -0.77; C -0.43; F -0.97; T 0.3; V -0.32; G -0.63
Y184: K -1.77; G -1.39; C -0.8; E -0.73; F 0.26; I -1.85; P -0.93; A -0.95; N -1.22; H -0.69; M -1.01; L -1.63; D -0.8
G167: H -0.66; K -0.34; P -1.01; E -1.93; Q -0.39; Y -1.42; A -0.48; D -1.19; S -1.64; R -1.14; V -0.99; F -1.3; I -2.1; T -1.32; C -2.06; L -0.9; N -1.11; W -1.16; M -1.61
F180: M -1.82; D -1.86; A -2.1; S -1.41; P -1.31; H -2.25; Y -1.77; C -1.87; L -0.42; V -2.01; E -1.03; I -1.72; T -1.29; N -2.28; K -1.78; G -1.85; R -1.76; Q -1.66
F170: L 0.11; T -0.01; P -1.16; D -1.87; Y -0.86; N -1.47; I 0.36; Q -0.12; V 0.47; A -0.27; R -1.14; K -0.63; E -2.21; G -0.91; S -0.47; C -0.28
